Measured values published in patent US20060003399A1, “High throughput actin polymerization assay” (Cytokinetics, Inc., priority 2004, published 2006).
Values belong to the substance of their own block, whether it stands above or below them.

What was measured:
Test in all cases: cell-based or functional assay
Arp2/3 complex (human) = Arp2/3 complex (human) (UniProt P61158)
[1] = biological target: Actin (G-actin with pyrene-actin) (chicken)
[2] = biological target: Full length human N-WASP, TAP-tagged at the C-terminus (Myc-N-WASP-TAP) (human)
[3] = biological target: Full length human WASP, TAP-tagged at the C-terminus (Myc-WASP-TAP) (human)

activity relative to 105 WASP (fold against 105 WASP) (Arp2/3 complex (human)): 20
concentration giving maximal concentration of barbed ends (500 nM Cdc42, 2.5 nM Arp2/3, 3.5 uM actin) (Arp2/3 complex (human)): 3 nM
potency relative to the VCA/WA domain (fold against VCA/WA domain) (Arp2/3 complex (human)): > 70
Substance: Full length human WASP, TAP-tagged at the C-terminus (Myc-WASP-TAP)

Substance: GST tagged C. albicans FH1-FH2 domain (from UniProt Q5AL52 972-1598)
lag phase of actin polymerization at 100 nM formin [1]: < 100 s
time to saturation phase of actin polymerization at 100 nM formin [1]: 400 s

Barbed ends [2]: 3.5 nM
Barbed ends % of max. [2]: 78%
EC50 [2]: 7 nM
Barbed ends [3]: 2.6 nM
Barbed ends % of max. [3]: 50%
EC50 [3]: 12 nM
Substance: GST-Nck2

EC50 [2]: 287 nM
EC50 [3]: 16 nM
Substance: GST-tev-Cdc42 (enzyme)

Substance: His6 tagged C. albicans FH1-FH2 domain (from UniProt Q5AL52 972-1598)
formin concentration to observe saturation of actin polymerization [1]: 300 to 500 nM
